From US20250237661A1 (MESO SCALE TECHNOLOGIES, published 2025)

Biological target: T1, angiotensin-converting enzyme 2 (ACE2), labeled with a detection label (human, UniProt Q9BYF1 18-740)
T1 construct: also called labeled ACE2
Test: labeled ACE2 on immobilized Mixed Panel antigens, ECL

T1 sequence (Q9BYF1 18-740 limits assumed): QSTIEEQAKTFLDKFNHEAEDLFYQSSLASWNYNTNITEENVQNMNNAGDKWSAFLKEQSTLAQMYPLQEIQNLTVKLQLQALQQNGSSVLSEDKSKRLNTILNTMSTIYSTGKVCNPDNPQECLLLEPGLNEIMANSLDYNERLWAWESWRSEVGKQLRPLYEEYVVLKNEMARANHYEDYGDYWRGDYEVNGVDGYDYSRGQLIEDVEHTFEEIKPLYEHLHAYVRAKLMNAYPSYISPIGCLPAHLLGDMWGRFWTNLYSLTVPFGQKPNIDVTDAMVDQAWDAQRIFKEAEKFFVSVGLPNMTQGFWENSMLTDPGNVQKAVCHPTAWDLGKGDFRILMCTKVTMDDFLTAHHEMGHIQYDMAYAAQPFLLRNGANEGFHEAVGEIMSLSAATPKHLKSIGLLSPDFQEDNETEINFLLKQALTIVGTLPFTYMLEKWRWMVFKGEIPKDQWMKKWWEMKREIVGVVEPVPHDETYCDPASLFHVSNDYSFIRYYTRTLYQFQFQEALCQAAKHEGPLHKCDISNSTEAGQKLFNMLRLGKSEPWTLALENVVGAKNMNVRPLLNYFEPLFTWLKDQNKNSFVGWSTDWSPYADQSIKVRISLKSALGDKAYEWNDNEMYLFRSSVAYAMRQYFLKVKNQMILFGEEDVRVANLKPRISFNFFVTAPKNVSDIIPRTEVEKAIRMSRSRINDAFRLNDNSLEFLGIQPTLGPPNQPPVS

B1: HCoV-OC43 S protein (other)
chain: AVIGDLKCTSDNINDKDTGPPPISTDTVDVTNGLGTYYVLDRVYLNTTLFLNGYYPTSGSTYRNMALKGSVLLSRLWFKPPFLSDFINGIFAKVKNTKVIKDRVMYSEFPAITIGSTFVNTSYSVVVQPRTINSTQDGDNKLQGLLEVSVCQYNMCEYPQTICHPNLGNHRKELWHLDTGVVSCLYKRNFTYDVNADYLYFHFYQEGGTFYAYFTDTGVVTKFLFNVYLGMALSHYYVMPLTCNSKLTLEYWVTPLTSRQYLLAFNQDGIIFNAEDCMSDFMSEIKCKTQSIAPPTGVYELNGYTVQPIADVYRRKPNLPNCNIEAWLNDKSVPSPLNWERKTFSNCNFNMSSLMSFIQADSFTCNNIDAAKIYGMCFSSITIDKFAIPNGRKVDLQLGNLGYLQSFNYRIDTTATSCQLYYNLPAANVSVSRFNPSTWNKRFGFIEDSVFKPRPAGVLTNHDVVYAQHCFKAPKNFCPCKLNGSCVGSGPGKNNGIGTCPAGTNYLTCDNLCTPDPITFTGTYKCPQTKSLVGIGEHCSGLAVKSDYCGGNSCTCRPQAFLGWSADSCLQGDKCNIFANFILHDVNSGLTCSTDLQKANTDIILGVCVNYDLYGILGQGIFVEVNATYYNSWQNLLYDSNGNLYGFRDYIINRTFMIRSCYSGRVSAAFHANSSEPALLFRNIKCNYVFNNSLTRQLQPINYFDSYLGCVVNAYNSTAISVQTCDLTVGSGYCVDYSKNRRSRGAITTGYRFTNFEPFTVNSVNDSLEPVGGLYEIQIPSEFTIGNMVEFIQTSSPKVTIDCAAFVCGDYAACKSQLVEYGSFCDNINAILTEVNELLDTTQLQVANSLMNGVTLSTKLKDGVNFNVDDINFSPVLGCLGSECSKASSRSAIEDLLFDKVKLSDVGFVEAYNNCTGGAEIRDLICVQSYKGIKVLPPLLSENQISGYTLAATSASLFPPWTAAAGVPFYLNVQYRINGLGVTMDVLSQNQKLIANAFNNALYAIQEGFDATNSALVKIQAVVNANAEALNNLLQQLSNRFGAISASLQEILSRLDALEAEAQIDRLINGRLTALNAYVSQQLSDSTLVKFSAAQAMEKVNECVKSQSSRINFCGNGNHIISLVQNAPYGLYFIHFSYVPTKYVTARVSPGLCIAGDRGIAPKSGYFVNVNNTWMYTGSGYYYPEPITENNVVVMSTCAVNYTKAPYVMLNTSIPNLPDFKEELDQWFKNQTSVAPDLSLDYINVTFLDLQVEMNRLQEAIKVLNQSYINLKDIGTYEYYVKWP
binding result: no binding
